# Values quoted from earlier work, collected in publication PMC8508339.
# Legend:
# [1] = target: cholecystokinin (Homo sapiens) (UniProt P06307)
# gastrin (Homo sapiens) = gastrin (Homo sapiens) (UniProt P01350)
# Chain of UniProt P01350 (P01350 whole entry, looked up): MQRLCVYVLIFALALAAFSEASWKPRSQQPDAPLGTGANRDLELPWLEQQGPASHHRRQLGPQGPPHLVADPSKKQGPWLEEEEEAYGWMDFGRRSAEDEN
# Chain of UniProt P06307 (P06307 whole entry, looked up): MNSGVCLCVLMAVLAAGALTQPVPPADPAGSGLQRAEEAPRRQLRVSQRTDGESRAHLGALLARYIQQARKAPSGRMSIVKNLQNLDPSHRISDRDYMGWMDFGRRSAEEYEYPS
substance,measurement,setting,value
CCK-B receptor (CCK2) (from UniProt P32239),Kd,[1],1 nM
same,Kd,gastrin (Homo sapiens),1 nM
